Reference: the supplement of paper PMC10126150
± gives the standard deviation of the averaged measurements.

Tested on: ATP
Experiment: switch fluorescence ratio, 500 uM ATP over buffer (Cy3 cluster intensity, sum of 5 cycles each) (fold (ratio)); higher = stronger signal-on switching upon ATP binding; sequences stand for … in TCGTCGGCAGCGTCAGATGTGTATAAGAGACAGTTTTTTTTTTTTTTTTTTTTTTTTT…TC
Conditions: aptamer strand: ATP DNA aptamer (quencher-CACCTGGGGGAGTATTGCGGAGGAAGG + anchor), 100 nM annealed; ATP concentration: 500 uM
Summary of the method: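 The fluorescence ratio divides summed target-cycle Cy3 intensity by summed buffer-cycle Cy3 intensity for each cluster and is averaged per switch-domain sequence. Cy3-labelled switching-strand clusters on a modified Illumina MiSeq flow-cell were annealed to 100 nM quencher-labelled ATP aptamer, then imaged in selection buffer and again after 15 min with 500 uM ATP at 22 °C. Five such cycles were run, with NaOH stripping and re-annealing between them, and clusters outside 100-1000 RFU were excluded.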
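Note: ATP exposure 15 min at 22 °C before imaging.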

Sequence	switch fluorescence ratio
AATGGGCAAG	1.05 ± 0.015
AATGGGCCCT	0.979 ± 0.047
AATGGGCGGA	0.995 ± 0.017
AATGGGCGTC	0.9902 ± 0.0069
AATGGGGCCT	1.03 ± 0.02
AATGGGGCGG	1.03 ± 0.034
AATGGGGTTT	0.9689 ± 0.0085
AATGGGTATT	0.987 ± 0.026
AATGGGTCGT	0.9673 ± 0.0077
AATGGGTTTT	0.976 ± 0.011
AATGGTAATA	0.986 ± 0.025
AATGGTATTC	0.998 ± 0.025
AATGGTCGTG	0.998 ± 0.02
AATGGTGGCT	1.11 ± 0.099
AATGGTGGGG	0.9912 ± 0.0053
AATGGTGGGT	1.01 ± 0.036
AATGGTGGTC	0.998 ± 0.012
AATGGTGGTT	0.996 ± 0.03
AATGGTTATC	0.9753 ± 0.0046
AATGGTTGGT	0.994 ± 0.016
AATGGTTTGC	1.13 ± 0.23
AATGTAAACG	0.978 ± 0.027
AATGTAGGAC	1.018 ± 0.0026
AATGTAGGCT	1.03 ± 0.027
AATGTCGACG	0.994 ± 0.036

Sequence	switch fluorescence ratio
AATGTGCGTT	0.993 ± 0.04
AATGTGGCGC	0.9643 ± 0.0043
AATGTGTCCC	0.991 ± 0.041
AATGTGTGCT	0.949 ± 0.0099
AATGTTACGG	1.061 ± 0.0098
AATGTTATAT	1.01 ± 0.014
AATGTTCAGG	0.995 ± 0.021
AATGTTGAAG	0.987 ± 0.034
AATGTTTAAA	0.9764 ± 0.0016
AATGTTTCTG	0.998 ± 0.038
AATGTTTTTT	1 ± 0.016
AATTAATGGT	0.978 ± 0.011
AATTAATTAA	1.004 ± 0.01
AATTAATTTT	0.995 ± 0.038
AATTACGGTG	1.05 ± 0.022
AATTACTTCT	1.042 ± 0.0026
AATTAGAATG	0.974 ± 0.029
AATTAGACGT	0.988 ± 0.015
AATTAGGCGG	1.02 ± 0.02
AATTAGTGCT	0.9938 ± 0.0069
AATTATGTCA	1.01 ± 0.022
AATTATTGGC	1.02 ± 0.061
AATTCAGATG	0.9623 ± 0.0077
AATTCAGCCT	1.06 ± 0.035
AATTCAGTTT	1.01 ± 0.033

Sequence	switch fluorescence ratio
AATTCATTTT	1.03 ± 0.059
AATTCCATTT	1.01 ± 0.023
AATTCCGGCG	1.12 ± 0.098
AATTCCGGGA	1.05 ± 0.068
AATTCCTCTT	1.05 ± 0.048
AATTCGACGA	1.006 ± 0.0056
AATTCGCGGG	0.981 ± 0.0069
AATTCGTGTT	0.989 ± 0.021
AATTCTTTTG	1.01 ± 0.043
AATTGACCCC	1.09 ± 0.023
AATTGACTTT	1.04 ± 0.011
AATTGCACGG	1.04 ± 0.016
AATTGCGTCA	0.9608 ± 0.0066
AATTGCGTTT	1.01 ± 0.024
AATTGGAAGT	1.01 ± 0.04
AATTGGATCT	1.01 ± 0.027
AATTGGATGT	1.01 ± 0.021
AATTGGGATT	0.998 ± 0.026
AATTGGGCCT	1.034 ± 0.003
AATTGGTCAT	1 ± 0.018
AATTGGTGGG	0.9916 ± 0.0084
AATTGGTTCG	0.984 ± 0.012
AATTGTAGGG	0.987 ± 0.03
AATTGTAGTT	0.9786 ± 0.0048
AATTGTATTA	0.973 ± 0.041

Sequence	switch fluorescence ratio
AATTGTCATT	1.01 ± 0.019
AATTGTCGCG	1.01 ± 0.012
AATTGTGGTT	0.97 ± 0.043
AATTGTTGTG	1 ± 0.022
AATTGTTTAT	0.9998 ± 0.0092
AATTTAAAAA	0.986 ± 0.022
AATTTAAATT	1 ± 0.037
AATTTAAGGT	0.977 ± 0.022
AATTTAATGG	1.04 ± 0.053
AATTTACGTG	1.06 ± 0.011
AATTTAGGTC	0.934 ± 0.028
AATTTAGTAT	0.996 ± 0.022
AATTTAGTGC	0.998 ± 0.07
AATTTCGCAA	3.4 ± 1.3
AATTTGCCGT	1.04 ± 0.042
AATTTGGGGC	0.982 ± 0.022
AATTTGGTTA	0.995 ± 0.045
AATTTGTAAA	0.981 ± 0.04
AATTTGTCCG	0.992 ± 0.041
AATTTTAGAG	0.973 ± 0.045
AATTTTAGCT	1.008 ± 0.0066
AATTTTGCTG	0.9662 ± 0.0053
AATTTTGTGG	1.03 ± 0.014
AATTTTTAT	1 ± 0.0022
AATTTTTTGA	0.972 ± 0.033

Sequence	switch fluorescence ratio
AATTTTTTTG	1.04 ± 0.051
AATTTTTTTT	1.01 ± 0.043
ACAAACTGCA	1.17 ± 0.067
ACAAATTGCC	1.031 ± 0.0017
ACAACAGCAC	1.18 ± 0.03
ACAAGACTGT	1.04 ± 0.048
ACAAGGAATG	0.997 ± 0.044
ACAAGGGCAT	1.03 ± 0.025
ACAAGGGGGG	1 ± 0.045
ACAAGGGTTA	0.999 ± 0.018
ACAAGGGTTC	1 ± 0.015
ACAAGTCGTT	0.972 ± 0.039
ACAATAAAAG	1.05 ± 0.044
ACAATGAGTG	1.003 ± 0.0011
ACAATGTCTA	0.962 ± 0.022
ACACACGGTC	1.34 ± 0.1
ACACAGGGTC	1.07 ± 0.011
ACACCTAAAC	1.065 ± 0.0096
ACACGATGCC	1 ± 0.043
ACACGGGGGC	1 ± 0.059
ACACGTGGGA	1.015 ± 0.0032
ACACGTGGGC	1.02 ± 0.029
ACACGTTTTT	1 ± 0.014
ACACTAGGGG	1.23 ± 0.17
ACACTTAGCT	1.07 ± 0.025

Sequence	switch fluorescence ratio
ACAGCGGCTA	1.02 ± 0.017
ACAGCGGGGG	1.03 ± 0.045
ACAGCGTTTG	0.983 ± 0.03
ACAGCTGGCG	1.05 ± 0.024
ACAGCTGGGT	0.98 ± 0.015
ACAGCTTTGA	0.985 ± 0.026
ACAGGAGGAA	1.01 ± 0.046
ACAGGATGTT	1.01 ± 0.027
ACAGGCTGCG	0.995 ± 0.024
ACAGGCTGGT	1.02 ± 0.028
ACAGGGGAGA	1.03 ± 0.024
ACAGGGGCCA	0.999 ± 0.011
ACAGGGGGCT	1.04 ± 0.051
ACAGGGGGGG	1.07 ± 0.19
ACAGGGGTAT	1.02 ± 0.066
ACAGGGGTTG	0.978 ± 0.033
ACAGGTTGGT	1.03 ± 0.018
ACAGTGCTGC	0.978 ± 0.012
ACAGTGTGTG	1.02 ± 0.027
ACAGTTAGGG	1.02 ± 0.024
ACAGTTCTTG	0.997 ± 0.023
ACATAATTAG	1.016 ± 0.0095
ACATAGCTTG	1.03 ± 0.011
ACATAGGCGG	1.022 ± 0.0083
ACATAGGGGT	1.01 ± 0.013

Sequence	switch fluorescence ratio
ACATCATAAA	0.988 ± 0.023
ACATCATAGC	1.048 ± 0.0076
ACATGAAGAT	1.031 ± 0.0025
ACATGAGCGG	0.971 ± 0.019
ACATGAGGGA	1.02 ± 0.067
ACATGAGGGG	1.026 ± 0.0094
ACATGATAGT	1.01 ± 0.043
ACATGGGGCG	1 ± 0.054
ACATGTAGAG	1 ± 0.0056
ACATGTGTTT	1.03 ± 0.028
ACATGTTGGT	1.02 ± 0.028
ACATTAGGGA	1.04 ± 0.058
ACATTCGTCC	1.37 ± 0.063
ACATTGAACG	1.07 ± 0.017
ACATTGCGAC	1.137 ± 0.0028
ACATTGGAGG	0.986 ± 0.025
ACATTGGGCT	1.01 ± 0.072
ACATTGGGGC	0.978 ± 0.046
ACATTGTGCG	0.969 ± 0.048
ACATTTATGT	0.9939 ± 0.0052
ACATTTCTCA	1.04 ± 0.021
ACATTTTAAG	1 ± 0.026
ACATTTTGG	1.002 ± 0.0081
ACCAAATTCA	1.04 ± 0.0087
ACCAACCGT	1.16 ± 0.02

Sequence	switch fluorescence ratio
ACCAAGGGAG	1.037 ± 0.0064
ACCAAGTTTT	1.019 ± 0.0072
ACCAATGGTC	1.02 ± 0.041
ACCACAGTTC	1.06 ± 0.015
ACCAGCTACA	1.09 ± 0.033
ACCAGGAGAT	1.046 ± 0.0011
ACCAGGCAGC	1.12 ± 0.024
ACCAGGGGAG	1.26 ± 0.066
ACCAGTGGGC	1.04 ± 0.049
ACCATAAGGG	1 ± 0.028
ACCATCAGCG	1.038 ± 0.0019
ACCATTGGTG	1.12 ± 0.013
ACCCACTGGG	1.06 ± 0.03
ACCCAGAGCG	1.14 ± 0.023
ACCCCCCTGT	1.37 ± 0.41
ACCCCCTTCT	1.32 ± 0.048
ACCCCTATTT	1.1116 ± 0.00045
ACCCGACGAG	1.03 ± 0.039
ACCCGGATGG	1.01 ± 0.021
ACCCGGCTTC	1.024 ± 0.0077
ACCCGGGCTT	0.995 ± 0.026
ACCCGGGGTT	0.994 ± 0.013
ACCCGTAATG	1.75 ± 0.028
ACCCTCGAAT	1.02 ± 0.011
ACCCTGTTGC	1.12 ± 0.072
